For series [1], the target named is Matrix-associated proTGFβ1. In words: MSD-SET binding, ECM average of hLTBP1 and hLTBP3 complexes. Conditions: average KD of (B) and (C), read-out: (D) ECM AVRG. Set-up: species or system human. The source says: Column (A) of the table provides monoclonal antibodies with discrete amino acid sequences. […] Columns (B), (C), (E) and (F) provide affinities of each of the listed antibodies, measured in KD, towards the antigen complex as indicated, respectively. […] Similarly, Average KD values calculated from (E) and (F) are shown in the corresponding column (G), which collectively represents affinities of the antibodies to cell-surface or cell-associated proTGF complexes. Finally, relative ratios between the average KD values from columns (D) and (G) are expressed as fold bias” in column (H). Thus, the greater the numerical of column (H) is, the greater bias exists for the particular antibody, when comparing binding preferences of the antibody for matrix-associated complexes to cell-surface complexes. This is one way of quantitatively representing and comparing inherent bias of antibodies to their target complexes. Such analyses may be useful in guiding the selection process for a candidate antibody for particular therapeutic use. Select antibodies of the present disclosure, as measured by MSD-SET, show context-bias (i.e., greater than five-fold bias) or unbias (i.e., less than 5-fold bias) toward matrix-associated complexes over cell-associated complexes. […] Without being bound by a particular theory, the differences in the kinetics of the assays and/or differences in the nature of recombinant proteins may account for the noticeable differences seen in Ab19 binding to hGARP complexes observed in the above Octet assay (see Table 6) compared to the below MSD-SET assay (see Table 7 below). For example, the Octet assay measures kinetic on and off rates, while the MSD-SET assay measures binding at equilibrium. In addition, the recombinant antibodies used in the Octet assay were expressed as IgG1 antibodies in yeast, while the antibodies used in the MSD assay were expressed as IgG4 antibodies in mammalian cells.

Series [2] deals with TGFβ signaling (Smad2/3 phosphorylation; Col1a1, Col3a1, Fn1). Briefly: Col4a3−/− genetic model of Alport syndrome (kidney pSmad2/3 ELISA, qPCR). Type of series: in vivo, mouse. The source says:
The murine Col4a3−/− model is an established genetic model of autosomal recessive Alport syndrome. Alport mice lack a functional collagen 4A3 gene (Col4A3−/−) and therefore cannot form normal type IV collagen trimers, which require α3, α4, and α5 chains. Col4a3−/− mice develop fibrosis in the kidney consistent with renal fibrosis in human patients, including interstitial fibrosis and tubular atrophy, and Col4a3−/− mice develop end-stage renal disease (ESRD) between 10 and 30 week of age, depending on the genetic background of the mouse. The structural and functional manifestation of renal pathology in Col4a3−/− mice, combined with the progression to ESRD make Col4a3−/− mice an ideal model to understand kidney fibrosis. Previous reports point to the importance of the TGFβ signaling pathway in this process, and treatment with either […], a known activator of TGFβ, or with a TGFβ ligand trap has been reported to prevent renal fibrosis and inflammation in Alport mice (Hahm et al. (2007) The American Journal of Pathology, 170(1): 110-125).
F1 offspring from Col4a3+/− males on a 129/Sv genetic background crossed to Col4a3+/− females on a C57/Bl6 genetic were employed for the study.
It is well documented that TGFβ receptor activation leads to a downstream signaling cascade of intra cellular events, including phosphorylation of Smad2/3. […] FIG. 7A provides a graph showing relative ratios of phosphorylated vs. total (phosphorylated and unphospohrylated) Smad2/3.
An IgG was used as negative control in both heterozygous (Col4a3+/−; Het) and knock out (Col4a3−/−; KO) mice. Following six weeks of antibody treatment (12 weeks after birth), animals were sacrificed, and the kidneys were collected for analyses.
To assess the functional effect of TGFβ inhibition, a third study was carried out in the Col4a3−/− model of kidney fibrosis. […] Treatment effect was assessed by gene expression, which was evaluated by quantitative polymerase chain reaction (qPCR) using cDNA generated from the kidneys of mice in this study.
A general note: ELISA stands for enzyme-linked immunosorbent assay.

The target of series [3] is T1, proTGFβ1 C4S (Homo sapiens, UniProt P01137, C33S). In words: Octet Red384 pH-sensitivity of binding (dissociation at pH 7 and pH 5). Conditions: dissociation at pH 7 vs pH 5. As to the method: The antibodies were tested against sensor-immobilized human proTGFβ1 C4S, which contains a mutation in the prodomain to facilitate proTGFβ1 expression without disulfide linkage to a presentation molecule.
Then, the tips were moved into an activation solution for 5 minutes. […] The activation solution is prepared immediately before use in the experiment. After tip activation, the tips were loaded for 3 minutes with a 10 ug/mL solution of human proTGFβ1 C4S in 10 mM sodium acetate buffer pH 5. After loading, the tips were quenched in ethanolamine pH 8.5 for 15 minutes. The tips were then baseline/blocked with a 20 minute incubation in 1× enhanced kinetics buffer. 1× enhanced kinetics buffer (1×EKB) is 1× kinetics buffer (ForteBio part no 18-1105 diluted from 10× with PBS) with the addition of 2% BSA (Sigma A3059-100G), 0.5 M NaCl (FisherS671-10), and 0.09% tween-20 (P7949-500M). […] The dissociation was performed in 1×KB at pH 7 and pH 5.
(In general: Biolayer interferometry detects binding as a change in optical thickness at a sensor tip.)

The test system of the next series is Cell-associated proTGFβ1. Briefly: Octet binding, cell average of hGARP and hLRRC33 complexes. Further details: species or system human. The conditions noted are these: average KD of (E) and (F), read-out: (G) Cell AVRG. From the text: Column (A) of the table provides monoclonal antibodies with discrete amino acid sequences. […] Columns (B), (C), (E) and (F) provide affinities of each of the listed antibodies, measured in KD, towards the antigen complex as indicated, respectively. […] Average KD values calculated from (B) and (C) are shown in the corresponding column (D), which collectively represents affinities of the antibodies to ECM- or matrix-associated proTGFβ1 complexes. Similarly, Average KD values calculated from (E) and (F) are shown in the corresponding column (G), which collectively represents affinities of the antibodies to cell-surface or cell-associated proTGF complexes. Finally, relative ratios between the average KD values from columns (D) and (G) are expressed as fold bias” in column (H). Thus, the greater the numerical of column (H) is, the greater bias exists for the particular antibody, when comparing binding preferences of the antibody for matrix-associated complexes to cell-surface complexes. This is one way of quantitatively representing and comparing inherent bias of antibodies to their target complexes. Such analyses may be useful in guiding the selection process for a candidate antibody for particular therapeutic use.

The nature of series [4]: 4-week rat toxicology study (weekly dosing). Type of series: in vivo. From the text:
Animals were sacrificed and necropsies performed.

In series [5] the target is T1, proTGFβ1 C4S. Briefly: HDX-MS determination of binding regions. The conditions noted are these: 1:3 molar ratio of proTGFβ1 to Fab.
From the text: Briefly, HDX-MS relies on the exchange of the protein backbone amide hydrogens with deuterium in solution. The backbone amide hydrogens involved in weak hydrogen bonds or located at the surface of the protein may exchange rapidly while those buried in the interior or those involved in stabilizing hydrogen bonds exchange more slowly. Based on the mass difference between hydrogen (1 Da) and deuterium (2 Da), which can be detected for example by mass spectrometry, the H-D exchange can be monitored overtime, Thus, by measuring HDX rates of backbone amide hydrogens, one can obtain information on protein dynamics, conformation and protein-protein interaction such as antibody-antigen-binding.
In HDX-MS, the regions of an antigen that are tightly bound by an antibody are protected from proton exchange, due to protein-protein interaction, while regions that are exposed to solvent can readily undergo proton exchange. Based on this, binding regions within the antigen, which are protected by the specific binding of the antibody, were identified.

“Also recorded” adds a separate entry of the source. Bounds are passed on as bounds.

T1 sequence (P01137 30-390 C33S): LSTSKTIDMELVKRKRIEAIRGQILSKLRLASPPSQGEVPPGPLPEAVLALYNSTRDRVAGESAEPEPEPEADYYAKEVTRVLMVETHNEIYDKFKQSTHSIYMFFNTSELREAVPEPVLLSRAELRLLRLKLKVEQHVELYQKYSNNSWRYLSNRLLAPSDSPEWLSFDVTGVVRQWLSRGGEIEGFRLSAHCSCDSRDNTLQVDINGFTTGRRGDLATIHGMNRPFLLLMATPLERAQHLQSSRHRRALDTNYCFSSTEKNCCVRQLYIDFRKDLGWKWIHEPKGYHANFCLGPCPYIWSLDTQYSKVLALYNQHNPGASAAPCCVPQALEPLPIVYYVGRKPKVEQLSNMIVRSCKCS

B1: Ab2: isoform-selective inhibitor of TGFβ1 activation; VH SEQ ID NO: 13, VL SEQ ID NO: 15; human IgG4 (antibody, V domains shown)
VH: EVQLLESGGGLVQPGGSLRLSCAASGFTFADYAMTWVRQAPGKGLEWVSAISGSGAATYFADSVKGRFTISRDNSKNTLYLQMNSLRAEDTAVYYCARVSSGHWDFDYWGQGTLVTVSS
VL: DIQLTQSPSSLSASVGDRVTITCRASQSISSYLNWYQQKPGKAPKLLIYAASNLQSGVPSRFSGSGSGTDFTLTISSLQPEDFATYYCQQTYTVPLTFGGGTKVEIK
modifications: human IgG4 constant regions
The term NOAEL denotes the highest tested level that showed no adverse finding. B1: the Kd came out at 266 pM in series [1] and 643 pM in the series on Cell-associated proTGFβ1. Further, the “Expression of Col1a1, Col3a1 and Fn1 in kidney (qPCR)” value in series [2] (5 mg/kg i.p. twice a week from week 6 to week 14, Col4a3−/− mice) is “significantly reduced the expression of Col1a1 and Col3a1; also recorded: Expression of Fn1 showed a similar trend in Ab2-treated Col4a3−/− mice, though this effect was not statistically significant”. Further, the “Relative ratio of phosphorylated vs. total Smad2/3 in whole kidney lysates” value in series [2] (i.p. twice weekly for six weeks from week 6, Ab3 5 or 1.5 mg/kg, Ab2 1.5 mg/kg, vs IgG treated Col4a3−/− mice) is recorded as “significant reduction in relative phosphorylation of Smad2/3”; in series [2] (single 10 mg/kg i.p. dose 48 hours before sacrifice, 9 week old Col4a3−/− mice) it was “sufficient to significantly inhibit pSmad2/3 signaling”. Moreover, in the series with proTGFβ1 C4S [3], the “pH sensitivity of binding” value is on record as “Ab2 is pH-sensitive”. Moreover, the Test article-related toxicity entry in series [4] (once weekly for 4 weeks up to 100 mg/kg, Fischer 344 or SD rats) is “free of observable toxicities associated with pan-inhibition of TGFβ; also recorded: no observable test article-related toxcity in either rat strain; also recorded: no toxic effects over background”. Also, the MTD in series [4] (rats, suggested from NOAEL of four-week toxicology study) is > 100 mg/kg. The molecule further registered an NOAEL in series [4] (rats, weekly dose for 4 weeks, highest dose tested) of 100 mg/kg. Besides, the “Regions of proTGFβ1 protected from H/D exchange upon Fab binding (binding regions 1, 2, 3)” value with proTGFβ1 C4S [5] is “LREAVPE; also recorded: WKWIHEPKGYHANFCLG”.

These data come from patent US20210340238A1, “TGFß1 INHIBITORS AND USE THEREOF” (Scholar Rock, Inc., priority 2018, published 2021).
